Assay results published in PMC2566858 (Nucleic Acids Research, 2008).
Where a chain is given by its changes, count along the chain named. Like-named read-outs stand apart in the source and are kept apart here.

How the values were obtained:
Assay in all cases: fluorescence anisotropy
[1] = biological target: T1, rGyr_fl Y851F (full-length reverse gyrase) (Thermotoga maritima, UniProt O51934 1-1104, Y851F)
T1 sequence: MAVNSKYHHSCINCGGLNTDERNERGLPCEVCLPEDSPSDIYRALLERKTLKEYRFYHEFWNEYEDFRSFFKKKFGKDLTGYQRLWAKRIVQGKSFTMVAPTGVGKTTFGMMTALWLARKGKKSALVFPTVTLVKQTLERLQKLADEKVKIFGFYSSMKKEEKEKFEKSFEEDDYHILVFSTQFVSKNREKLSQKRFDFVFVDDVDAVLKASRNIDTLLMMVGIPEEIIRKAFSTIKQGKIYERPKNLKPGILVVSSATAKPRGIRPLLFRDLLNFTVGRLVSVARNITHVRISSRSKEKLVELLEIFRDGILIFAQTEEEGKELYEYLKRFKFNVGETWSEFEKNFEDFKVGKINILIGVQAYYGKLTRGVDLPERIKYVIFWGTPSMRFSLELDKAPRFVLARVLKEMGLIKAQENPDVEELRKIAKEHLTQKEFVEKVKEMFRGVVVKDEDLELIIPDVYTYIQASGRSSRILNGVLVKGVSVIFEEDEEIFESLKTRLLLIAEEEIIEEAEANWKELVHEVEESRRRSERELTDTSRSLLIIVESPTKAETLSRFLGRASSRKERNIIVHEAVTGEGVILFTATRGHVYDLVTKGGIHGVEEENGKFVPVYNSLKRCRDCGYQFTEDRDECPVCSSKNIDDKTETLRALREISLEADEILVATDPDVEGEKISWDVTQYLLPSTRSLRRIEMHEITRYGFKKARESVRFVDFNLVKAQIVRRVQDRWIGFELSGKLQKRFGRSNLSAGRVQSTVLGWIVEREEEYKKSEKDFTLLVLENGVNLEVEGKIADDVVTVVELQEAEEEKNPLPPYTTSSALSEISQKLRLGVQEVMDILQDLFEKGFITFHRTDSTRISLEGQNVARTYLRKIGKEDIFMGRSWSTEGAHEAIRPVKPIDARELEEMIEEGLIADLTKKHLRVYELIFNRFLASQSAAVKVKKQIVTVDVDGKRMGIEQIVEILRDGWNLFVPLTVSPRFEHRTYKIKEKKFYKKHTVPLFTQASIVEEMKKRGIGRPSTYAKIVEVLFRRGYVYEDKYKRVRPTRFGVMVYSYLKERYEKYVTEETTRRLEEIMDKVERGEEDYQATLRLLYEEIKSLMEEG

[2] = biological target: T2, rGyr_hel (reverse gyrase helicase-like domain) (Thermotoga maritima, UniProt O51934 59-541)
T2 sequence: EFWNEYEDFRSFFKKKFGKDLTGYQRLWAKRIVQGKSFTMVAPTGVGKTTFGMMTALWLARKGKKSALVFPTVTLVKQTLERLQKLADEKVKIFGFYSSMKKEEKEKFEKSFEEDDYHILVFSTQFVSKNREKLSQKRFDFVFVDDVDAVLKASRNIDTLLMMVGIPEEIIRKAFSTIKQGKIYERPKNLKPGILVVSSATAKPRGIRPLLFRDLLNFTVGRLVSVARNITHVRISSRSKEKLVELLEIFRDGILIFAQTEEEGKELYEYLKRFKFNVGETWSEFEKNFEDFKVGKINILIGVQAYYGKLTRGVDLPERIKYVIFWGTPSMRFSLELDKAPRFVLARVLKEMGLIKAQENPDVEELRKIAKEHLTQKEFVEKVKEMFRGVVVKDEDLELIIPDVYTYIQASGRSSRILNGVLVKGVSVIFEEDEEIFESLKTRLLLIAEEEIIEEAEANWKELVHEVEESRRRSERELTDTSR

[3] = biological target: T2, rGyr_hel (reverse gyrase helicase-like …); remark: listed apart in the source
[4] = biological target: T2, rGyr_hel (reverse gyrase helicase-like …); remark: listed apart in the source
[5] = biological target: T3, rGyr_hel K106Q (Thermotoga maritima, UniProt O51934 59-541, K106Q)
T3 sequence: T2 sequence with K48Q

[6] = biological target: T1, rGyr_fl Y851F (full-length reverse …); remark: listed apart in the source

B1: 60-base ssDNA (ssDNA)
DNA: AAGCCAAGCTTCTAGAGTCAGCCCGTGATATTCATTACTTCTTATCCTAGGATCCCCGTT
[1]
  Kd: 60 ± 15 nM
[2]
  Kd: 600 ± 70 nM
[3]
  Kd: 330 ± 10 nM
[4]
  Kd: 920 ± 210 nM
[5]
  Kd: 180 ± 30 nM
[6]
  Kd: 36 ± 1 nM

B2: 60 bp dsDNA (dsDNA)
DNA 1: B1 DNA
DNA 2: AACGGGGATCCTAGGATAAGAAGTAATGAATATCACGGGCTGACTCTAGAAGCTTGGCTT
[1]
  Kd: 250 ± 40 nM
